Laboratory results: article PMC5653234

Legend:
[1] = target: MBP-AKAP79 (A-kinase anchoring protein 79) with C-terminal 10x His-tag (human) (UniProt P24588); test: SEC-MALS; 500 μL purified complex (~2 mg/mL) on a WTC-050S5 SEC column at 0.5 mL/min, in-line refractometer and light scattering
[2] = target: AKAP79∆L-CaNAR (AKAP79 lacking residues 122-136 fused to CaNAR2pax) (human) (UniProt P24588)
[3] = target: AKAP79-CaNAR (full-length AKAP79 fused to the N-terminus of CaNAR2pax) (human) (UniProt P24588)
[4] = target: MBP-AKAP79 (A-kinase anchoring protein 79) with C-terminal 10x His-tag (human) (UniProt P24588); test: AlphaScreen or HTRF; competition: 100 nM biotinylated PP2B and 100 nM His-tagged AKAP79 or fragment, serial dilutions of untagged PP2B; streptavidin donor and nickel acceptor beads; 25 mM HEPES, pH 7.5, 100 mM NaCl, 0.1% BSA, 3 mM CaCl2, 2 μg/mL CaM; one-site IC50 fit taken to approximate the Kd
[5] = target: His-tagged AKAP79 C-terminal fragment (PIAIIIT region) (human) (UniProt P24588); test: as above
[6] = target: His-tagged AKAP79 N-terminal fragment encompassing the LKIP motif (human) (UniProt P24588); test: as above

Row | Substance | stoichiometry N [1] | time to half maximal YFP/CFP FRET response of the reporter after 1 μM ionomycin (HeLa cells) [2] [min] | time to half maximal YFP/CFP FRET response of the reporter after 1 μM ionomycin (HeLa cells) [3] [min] | Kd [4] [µM] | Kd [5] [µM] | Kd [6] [µM]
1 | calmodulin (CaM) (from UniProt P0DP23 1-149) (natural protein; other documents disagree on this pair) | 1 | – | – | – | – | –
2 | PP2B, endogenous in HEK293 cells (from UniProt Q08209 1-521; P63098 1-170) (complex) | – | 2.41 | 3.58 | – | – | –
3 | PP2B holoenzyme (calcium/calmodulin-dependent protein phosphatase 2B; A and B subunits), untagged (from UniProt Q08209 1-521; P63098 1-170) (complex) | 1 | – | – | 12 | 5.6 | 81
